Results as given in publication PMC3575409, “Identification of a Novel Protein-Protein Interaction Motif Mediating Interaction of GPCR-Associated Sorting Proteins with G Protein-Coupled Receptors” (PLoS ONE, 2013).
Each block holds one molecule with its values, some of them ahead of it.

Key:
Type in all cases: binding
GST-fused ADRB1 C-tail = assay: GST-pull down, ADRB1 C-tail; conditions: for interaction of truncated GASP-1 with ADRB1 C-tail (words): compared with full-length GASP-1
Excerpt: (§1) cDNAs encoding the cytoplasmic C-tail of 14 GPCRs and 2 one-transmembrane receptors were cloned into the pGEX-2T prokaryotic expression vector downstream the GST sequence. The following pGEX constructs were engineered: pGEX-DOR encoding residues 314–372 of the δ-opioid receptor (referring to Swiss-Prot accession number U10504), pGEX-MOR encoding residues 334–400 of the µ-opioid receptor (L29301), pGEX-KOR encoding residues 326–380 of the κ–opioid receptor (U17298), pGEX-ORL1 encoding residues 315–370 of the opioid receptor-like 1 (X77130), pGEX-M1 encoding residues 414–460 of the muscarinic M1 acetylcholine receptor (X52068), pGEX-M2 encoding residues 436–466 of the muscarinic M2 acetylcholine receptor (M16404), pGEX- ADRB1 encoding residues 373–477 of the β1 adrenergic receptor (J03019), pGEX-ADRB2 encoding residues 322–413 of the β2 adrenergic receptor (P07550), pGEX-CALCR encoding residues 407–490 of the calcitonin receptor (L00587), pGEX-CNR2 encoding residues 295–360 of the cannabinoid type 2 receptor (P34972), pGEX-5HT7 encoding residues 380–445 of the 5-hydroxytryptamine 7 receptor (L21195), pGEX-H2 encoding residues 284–349 of the histamine 2 receptor (S57565), pGEX-TXA2 encoding residues 304–343 of the α isoform of the thromboxane A2 receptor (D38081), pGEX-FZ4 encoding residues 493–537 of the frizzled 4 receptor (AB032417), pGEX-TGFβ encoding residues 805–849 of the type III transforming growth factor b receptor (L07594), pGEX-IGF1 encoding residues 1268–1367 of the insulin growth factor I receptor (X04434). Free GST was produced by using the pGEX-4T3 expression vector without insert. The same plasmid was used to clone the cDNA encoding a central domain of GASP-1, corresponding to amino acids 380 to 1073, downstream the GST sequence. All these plasmids were transformed into the Escherichia coli BL21 strain and expression was induced using 1mM of isopropylthiogalactoside for 2 h at 37°C. Bacteria were then pelleted, resuspended in PBS supplemented with cOmplete protease inhibitors (Roche), lysed at 1.5 kbar using a basic Z cell disrupter (constant system) and finally the lysates were cleared by centrifugation (10,000g, 15 min, 4°C).
(§2) cDNAs encoding GASP-1 and GASP-2 were cloned into the pcDNA3 eukaryotic expression vectors. cDNAs encoding GASP-3, -6, -7, and -9 were subcloned into pcDNA3.1 vectors. All the clones were controlled by DNA sequencing. The in vitro production was performed by using the TNT Quick-coupled Transcription/Translation T7 kit (Promega) in presence of [^35S]-Methionine according to the instructions from the manufacturer.
(§3) GST-fusion proteins were immobilized on glutathione-coupled Sepharose beads (GE Healthcare) for 1 h at 4°C and incubated with [^35S]-labelled in vitro translated GASP proteins or their truncated or mutated forms in ice-cold binding buffer containing: 20 mM Tris-HCl pH 7.4, 150 mM NaCl, 1 mM EDTA, 1 mM DTT, 10% glycerol and 1% Triton X-100. The mixture was incubated for 1 h at 4°C with gentle rocking. The beads were washed five times with the same ice-cold buffer, resuspended in 30 µl SDS-PAGE sample buffer, incubated 10 min at 65°C, and pelleted for 60 s at 3000 g. The supernatants were then analyzed by SDS-PAGE, the gels were stained with Coomassie blue to visualize GST-fusion proteins, dried and analyzed using a Phosphor-imager (Personal Molecular Imager FX, Biorad) to visualize [^35S]-labelled GASPs. Quantification was performed with the Quantity One software (Biorad). GST-pull down quantification data were analyzed using GraphPad Prism 4.03 (GraphPad Software). Quantifications presented are means of at least three independent experiments.

GST-fused M1 C-tail = assay: GST-pull down, M1 C-tail; conditions: for interaction of truncated GASP-1 with M1 C-tail (words): compared with full-length GASP-1
Excerpt: as §1, §2, §3

GST-fused DOR C-tail = assay: GST-pull down, DOR C-tail
Excerpt: as §1, §2, §3

GST-fused CALCR C-tail = assay: GST-pull down, CALCR C-tail
Procedure: (§4) cDNAs encoding the cytoplasmic C-tail of 14 GPCRs and 2 one-transmembrane receptors were cloned into the pGEX-2T prokaryotic expression vector downstream the GST sequence. […]
as §3, with “The mixture was incubated for 1 h at 4°C with gentle rocking. The beads were washed five times with the same ice-cold buffer, resuspended in 30 µl SDS-PAGE sample buffer, incubated 10 min at 65°C, and pelleted for 60 s at 3000 g.” left out

GST-fused FZ4 C-tail = assay: GST-pull down, FZ4 C-tail; conditions: strong = >10% of GASP input
Procedure: as §4
as §3, with “The mixture was incubated for 1 h at 4°C with gentle rocking. The beads were washed five times with the same ice-cold buffer, resuspended in 30 µl SDS-PAGE sample buffer, incubated 10 min at 65°C, and pelleted for 60 s at 3000 g.” left out

[1] = tested on: GST-fused TGFβ (type III transforming growth factor β receptor) C-tail; assay: GST-pull down, TGFβ C-tail; conditions: for interaction with TGFβ C-tail: non-GPCR control
Excerpt: as §1, §2, §3

[2] = tested on: GST-fused IGF1 (insulin growth factor I receptor) C-tail; assay: GST-pull down, IGF1 C-tail; conditions: for interaction with IGF1 C-tail: non-GPCR control
Excerpt: as §1, §2, §3

GST-fused GPCR C-tails = assay: GST-pull down, GPCR C-tails; conditions: for interaction with GPCR C-tails: twelve GPCR C-tails
Excerpt: as §1, §2
as §3, with “experiments. […]” for “experiments.”

GST-fused TXA2 C-tail = assay: GST-pull down, TXA2 C-tail; conditions: percent of [35S]-GASP input; pH 7.4, 1 h at 4°C; three independent experiments
Procedure: as §4
as §3, with “The mixture was incubated for 1 h at 4°C with gentle rocking. The beads were washed five times with the same ice-cold buffer, resuspended in 30 µl SDS-PAGE sample buffer, incubated 10 min at 65°C, and pelleted for 60 s at 3000 g.” left out

[3] = tested on: GST-fused H2 (histamine H2 receptor) C-tail; assay: GST-pull down, H2 C-tail; conditions: percent of [35S]-GASP input; pH 7.4, 1 h at 4°C; three independent experiments
Procedure: as §4
as §3, with “The mixture was incubated for 1 h at 4°C with gentle rocking. The beads were washed five times with the same ice-cold buffer, resuspended in 30 µl SDS-PAGE sample buffer, incubated 10 min at 65°C, and pelleted for 60 s at 3000 g.” left out

[4] = percent of [35S]-GASP input, pH 7.4, 1 h at 4°C, three independent experiments
[5] = percent of [35S]-GASP input, controls

B1: mutant 1025–1395: truncated mutant of GASP-1 corresponding to the conserved C-terminal domain (protein)
chain: ICRSTCSVEQEPDPSRRPQSWEEVTVQFKPGPWGRVGFPSISPFRFPKEAASLFCEMFGGKPRNMVLSPEGEDQESLLQPDQPSPEFPFQYDPSYRSVQEIREHLRAKESTEPESSSCNCIQCELKIGSEEFEELLLLMEKIRDPFIHEISKIAMGMRSASQFTRDFIRDSGVVSLIETLLNYPSSRVRTSFLENMIRMAPPYPNLNIIQTYICKVCEETLAYSVDSPEQLSGIRMIRHLTTTTDYHTLVANYMSGFLSLLATGNAKTRFHVLKMLLNLSENLFMTKELLSAEAVSEFIGLFNREETNDNIQIVLAIFENIGNNIKKETVFSDDDFNIEPLISAFHKVEKFAKELQGKTDNQNDPEGDQEN
modifications: [35S]-methionine labelled
interaction of truncated GASP-1 with ADRB1 C-tail (words) (GST-fused ADRB1 C-tail): did not display detectable interactions
interaction of truncated GASP-1 with ADRB1 C-tail (words) (GST-fused ADRB1 C-tail; listed as 1025–1395): no significant interaction
interaction of truncated GASP-1 with M1 C-tail (words) (GST-fused M1 C-tail): did not display detectable interactions
interaction of truncated GASP-1 with M1 C-tail (words) (GST-fused M1 C-tail; listed as 1025–1395): no significant interaction
interaction of truncated GASP-1 with DOR C-tail (GST-fused DOR C-tail; compared with full-length GASP-1): interacted only weakly
interaction with DOR C-tail relative to full-length GASP-1 (GST-fused DOR C-tail; percent of full-length GASP-1 interaction, three independent experiments): 25%

B2: mutant 470–838: truncated GASP-2 corresponding to the C-terminal domain (protein)
chain: KVSDRFRDAAEELNASSRPQTWDEVTVEFKPGLFHGVGFRSTSPFGIPEEASEMLEAKPKNLELSPEGEEQESLLQPDQPSPEFTFQYDPSYRSVREIREHLRARESAESESWSCSCIQCELKIGSEEFEEFLLLMDKIRDPFIHEISKIAMGMRSASQFTRDFIRDSGVVSLIETLLNYPSSRVRTSFLENMIHMAPPYPNLNMIETFICQVCEETLAHSVDSLEQLTGIRMLRHLTMTIDYHTLIANYMSGFLSLLTTANARTKFHVLKMLLNLSENPAVAKKLFSAKALSIFVGLFNIEETNDNIQIVIKMFQNISNIIKSGKMSLIDDDFSLEPLISAFREFEELAKQLQAQIDNQNDPEVGQQS
modifications: [35S]-methionine labelled
interaction of GASP-2 mutants with ADRB1 C-tail (GST-fused ADRB1 C-tail; compared to wild-type GASP-2): almost no interaction
interaction of GASP-2 mutants with CALCR C-tail (GST-fused CALCR C-tail; compared to wild-type GASP-2): almost no interaction
interaction of GASP-2 mutants with M1 C-tail (GST-fused M1 C-tail; compared to wild-type GASP-2): almost no interaction

Continued, in another order:

interaction with TGFβ C-tail [1]: no interaction was detected
interaction with IGF1 C-tail [2]: no interaction was detected
B3: GASP-3: member of the GASP family, two GASP motifs (protein)
chain: MAGTKNKTRAQAKTEKKAAIQAKAGAEREATGVVRPVAKTRAKAKAKTGSKTDAVAEMKAVSKNKVVAETKEGALSEPKTLGKAMGDFTPKAGNESTSSTCKNEAGTDAWFWAGEEATINSWFWNGEEAGNSFSTKNDKPEIGAQVCAEELEPAAGADCKPRSGAEEEEEENVIGNWFWEGDDTSFDPNPKPVSRIVKPQPVYEINEKNRPKDWSEVTIWPNAPAVTPAVLGFRSQAPSEASPPSYIVLASAEENACSLPVATACRPSRNTRSCSQPIPECRFDSDPCIQTIDEIRRQIRIREVNGIKPFACPCKMECYMDSEEFEKLVSLLKSTTDPLIHKIARIAMGVHNVHPFAQEFINEVGVVTLIESLLSFPSPEMRKKTVITLNPPSGDERQRKIELHVKHMCKETMSFPLNSPGQQSGLKILGQLTTDFVHHYIVANYFSELFHLLSSGNCKTRNLVLKLLLNMSENPTAARDMINMKALAALKLIFNQKEAKANLVSGVAIFINIKEHIRKGSIVVVDHLSYNTLMAIFREVKEIIETM
modifications: [35S]-methionine labelled
interaction with FZ4 C-tail (GST-fused FZ4 C-tail): strong interaction
GASP input retained by GPCR C-tails (GST-fused GPCR C-tails; percent of GASP input): > 10%
interaction with GPCR C-tails (GST-fused GPCR C-tails): medium to strong interactions

GASP input retained by H2 C-tail [3]: around 2%
interaction with TGFβ C-tail [1]: No interaction was detected
GASP input retained by control TGFβ C-tail [1, 5]: less than 1%
interaction with IGF1 C-tail [2]: No interaction was detected
GASP input retained by control IGF1 C-tail [2, 5]: less than 1%
B4: GASP-6: member of the second GASP subfamily, without GASP motif (protein)
chain: MGYARKVGWVTAGLVIGAGACYCIYRLTRGRKQNKEKMAEGGSGDVDDAGDCSGARYNDWSDDDDDSNESKSIVWYPPWARIGTEAGTRARARARARATRARRAVQKRASPNSDDTVLSPQELQKVLCLVEMSEKPYILEAALIALGNNAAYAFNRDIIRDLGGLPIVAKILNTRDPIVKEKALIVLNNLSVNAENQRRLKVYMNQVCDDTITSRLNSSVQLAGLRLLTNMTVTNEYQHMLANSISDFFRLFSAGNEETKLQVLKLLLNLAENPAMTRELLRAQVPSSLGSLFNKKENKEVILKLLVIFENINDNFKWEENEPTQNQFGEGSLFFFLKEFQVCADKVLGIESHHDFLVKVKVGKFMAKLAEHMFPKSQE
modifications: [35S]-methionine labelled
GASP input retained by ADRB1 C-tail (GST-fused ADRB1 C-tail; [4]): around 2%
GASP input retained by CALCR C-tail (GST-fused CALCR C-tail; [4]): around 2%
GASP input retained by TXA2 C-tail (GST-fused TXA2 C-tail): around 2%
GASP input retained by M1 C-tail (GST-fused M1 C-tail; [4]): around 2%
GASP input retained by DOR C-tail (GST-fused DOR C-tail; [4]): around 2%
interaction with GPCR C-tails (GST-fused GPCR C-tails): very weak interactions
